Experimental data reported in US20250289903A1 (PURINNOMIA BIOTECH, published 2025).

T1: human CD39 (ectonucleoside triphosphate diphosphohydrolase-1) (human, UniProt P49961 1-510)
T1 construct: whole, on cells; also called hCD39; ENTPD1
T1 sequence (looked up): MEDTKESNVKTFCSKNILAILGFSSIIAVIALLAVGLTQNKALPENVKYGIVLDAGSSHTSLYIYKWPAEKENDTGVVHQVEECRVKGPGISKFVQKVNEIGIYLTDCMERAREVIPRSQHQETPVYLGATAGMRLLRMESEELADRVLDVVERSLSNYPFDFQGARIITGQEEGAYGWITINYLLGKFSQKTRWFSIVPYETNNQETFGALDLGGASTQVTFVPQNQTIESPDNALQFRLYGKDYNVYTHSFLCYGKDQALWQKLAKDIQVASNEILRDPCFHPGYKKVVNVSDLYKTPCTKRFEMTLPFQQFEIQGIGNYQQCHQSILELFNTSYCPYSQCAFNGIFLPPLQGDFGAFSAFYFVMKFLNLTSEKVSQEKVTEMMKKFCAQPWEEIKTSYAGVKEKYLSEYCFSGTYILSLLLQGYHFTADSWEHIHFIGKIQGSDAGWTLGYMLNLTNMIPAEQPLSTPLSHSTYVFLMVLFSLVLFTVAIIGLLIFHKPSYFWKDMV


Each binder was assayed against T1, human CD39 (ectonucleoside triphosphate …) (assay: stable immune complex assay, HCC1739BL cells, 2 µg/mL, anti-human IgG Fc AF488 MFI, 24 h 37°C vs 20 min 4°C).
Description: Exemplary anti-human CD39 antibodies presenting high, low and no ADCC activity (2 μg/mL) were incubated with HCC1739BL cells for 24 hours at 37° C. in 5% CO₂ or 20 minutes at 4° C., followed by secondary antibody staining (anti-human IgG (Fc specific), Alexa Fluor® 488) for 30 minutes at 4° C. Cells were then washed and analyzed by flow cytometry. The difference in AF488 MFI between 20 minutes and 24 hours treatment represents the loss of human CD39 on cell membrane that was calculated as described in Materials and Methods. […] Hu/Ra: Human/Rabbit chimeric antibody; hIgG1: humanized rabbit antibody, IgG1 isotype.
HCC1739BL cells (5×10⁵ cells/mL) were incubated with anti-human CD39 monoclonal antibodies (2 μg/mL) or left untreated for 24 hours at 37° C. in 5% CO₂. The following day, untreated cells were exposed to the same panel of monoclonal antibodies (2 μg/mL) but for 20 minutes at 4° C. to obtain the basal level of CD39 expression. Cells were then washed twice with cell staining buffer and stained with anti-human IgG (Fc specific) Alexa Fluor® 488 (1:2000) for 30 minutes at 4° C., followed by two additional washes and fixation with paraformaldehyde (PFA, 2%) for 10 minutes at room temperature. Lastly, cells were washed twice and analyzed by a Cytek™ Aurora flow cytometer (Cytek Biosciences). Alexa Fluor® 488 (AF488) MFI was detected, and data was analyzed by FCS Express 7 software (De Novo Software). The percentage of human CD39 loss on cell membrane at 24 hours was calculated as: [(20 min MFI-24 h MFI/20 min MFI)]X100.

Binder	loss of human CD39 (immune complex) on cell membrane at 24 hours
PEONP22, afucosylated counterpart of PEOWT22 (antibody, human IgG1, kappa, V domains shown, afucosylated (Fc glycan); no genetic modifications, Produced by CHO cells stably transfected with the parental PEOWT22 plasmid) VH: EVQLVESGGGVVRPGGSLRLSCAASGFTFSSYAMHWVRQAPGKGLEWVAVISYDVSNKYYADSVKGRFTISRDNSKNTLYLQMNSLRAEDTAVYYCARSYYYYYGMDVWGQGTTVTVSS VL: DVVMTQSPSSLSASVGDRVTITCRASQSISRYLAWYQQKPGQAPRLLIYDASNRATGIPVRFSGSGSGTDFTLTISRLEPEDFAVYYCQQFGRSPRTFGQGTRLEIKR	< 30%
PEO19, Human/Rabbit chimeric anti-human CD39 monoclonal antibody (antibody, V domains shown, also called clone PEO19) VH: QSVEESGGRLVTPGTHLTLTCTVSGFSLSKSIISWVRQAPGKGLEYIGIIGSSGSTYYANWAKGRFTISKTSSTTVDLRMTSLTPEDTATYFCARGLLYSGNKSWGPGTLVTVSS VL: AIDMTQTPSSVSAAVGGTVTINCQSSQSVLLNNQLSWFQQKPGQPPKLLIYDASTLESGVPSRFTGSGSGTQFTLTISDLECDDAATYYCLGGYSGNLYAFGGGTEVLVK	< 30%
PEO20, Human/Rabbit chimeric anti-human CD39 monoclonal antibody (antibody, V domains shown, also called clone PEO20) VH: QSVEESGGRLVTPGTPLTLTCTVSGFSLSSYAISWVRQAPGKGLEYIAIINSYGTTYYASWAKGRVTISKTSSTVDLKISSPTTEDTATYFCARGDSYGSGVGLGLWGPGTLVTVSS VL: AYDMTQTPASVEVAVGGTVTIKCQASQNIYSNLAWYQQKPGQRPKLLIYRASSLASGVPSRFSGSGSGTEFTLTISGVQCDDAATYYCQQGFSSNNVDNTFGGGTEVVVK	< 30%
PEO21, Human/Rabbit chimeric anti-human CD39 monoclonal antibody (antibody, V domains shown, also called clone PEO21) VH: QSVEESGGRLVTPGTPLTLTCTVSGFSLSSYAMSWVRQAPGKGLEYIGIISSSGSTYYASWAKGRFTISKTSTTVDLKISSPTTEDTATYFCARDRVIYSIGPYYFNLWGPGTLVTVSS VL: AYDMTQTPSSVSATVGGTVTINCQASEIIYSNLAWYQQKPGQPPKLLIYGASTLASGVPSRFKGSGSGTEYTLTISDLQCDDAATYYCQQSFSSNNVGNIFGGGTEVVVK	< 30%

These binders were tested against T1, human CD39 (ectonucleoside triphosphate …) (assay: flow cytometry epitope competition on HCC1739BL cells, competitor PE-Clone A1).
Description: HCC1739BL cells were incubated with a panel of 18 anti-human CD39 monoclonal antibodies (Human/Rabbit chimeric clones; unconjugated, 2 μg/mL) at 4° C. for 30 minutes, followed by washing and staining with PE-conjugated mouse anti-human CD39 monoclonal antibody (Clone A1) for 30 minutes at 4° C. Cells were then analyzed by flow cytometry and PE median fluorescence intensity (MFI) was detected. Cells incubated with media instead of chimeric antibody were used as control.
Unconjugated anti-human CD39 monoclonal antibodies (Human/Rabbit chimeric clones; 2 μg/mL) were incubated with HCC1739BL cells (1×10⁵ cells) for 30 minutes at 4° C. Cells were then washed twice with cell staining buffer and stained with PE-conjugated mouse anti-human CD39 monoclonal antibody Clone A1 (0.25 μg/mL, Biolegend #328208) for 30 minutes at 4° C. Cells were then washed twice and analyzed by a Cytek™ Aurora flow cytometer. PE median fluorescence intensity (MFI) was detected, and data was analyzed by FCS […] Express 7 software (De Novo Software). Cells incubated with media instead of the chimeric antibody were used as control.

Binder	binding result
PEO18, Human/Rabbit chimeric anti-human CD39 monoclonal antibody (antibody, V domains shown, also called clone PEO18) VH: QSVKEAGGRLVTPGGSLTLTCTVSGFSLSAYGISWVRQAPGKGLEWIGIIYSSGRTYYANWAKGRFTISKTSSTTVDLKMTSLTTEDTAAYFCARSRAGISSGDGFDSWGPGTLVTVSS VL: ALVMTQTPSSVSAAVGGTVTINCQASQNIYSNLAWYQQKPGQRPQLLIYRASTLASGVPSRFKGSASGTEYTLTISGVQCDDAATYYCQQGFDSSNIDNTFGGGTEVVVT	binds
PEO24, Human/Rabbit chimeric anti-human CD39 monoclonal antibody (antibody, V domains shown, also called clone PEO24) VH: QSVEESGGRLVTPGTPLTLTCTVSGIDLSSNAMSWVRQAPGKGLEYIGIIRNNDITYYASWAKGRFTISKTSTTVDLIITSPTTEDTATYFCARGGGSYSIVFWNLWGPGTLVTVSS VL: AYDMTQTPASVEVAVGGTVTINCQASERIYSNLAWYQQKPGQRPKLLIYYASTLASGVSSRFKGSGSGTQFTLTISGVQCADAATYYCQQGYSNNNVDNTFGGGTEVVVR	binds
PEO23, Human/Rabbit chimeric anti-human CD39 monoclonal antibody (antibody, V domains shown, also called clone PEO23) VH: QSVEESGGRLVTPGTPLTLTCTASGFSLSTHAINWVRQAPGKGLEWIGITYASGRTYYASWAKGRFTISKTSTTVDLKITSPTTEDTATYFCARNGADETFYYFDLWGPGTLVTVSS VL: AYDMTQTPASVEAAVGGTVTIKCQASQNINTWLSWYQQKAGQPPKLLIYRASTLASGVSSRFKGSGSGTQFTLTISGVECADAATYYCQQYDASINIDNAFGGGTEVVVK	binds

These binders were tested against T1, human CD39 (ectonucleoside triphosphate …) (assay: cell-based or functional assay).

Binder	EC50 of NK cytotoxicity toward human eosinophils (in-vitro ADCC assay, human NK effector cells)
PEO22, optimized afucosylated counterpart of PEOWT22 (antibody, human IgG1, kappa, V domains shown, afucosylated (Fc glycan); no genetic modifications) VH: EVQLVESGGGVVRPGGSLRLSCAASGFTFSSYAMHWVRQAPGKGLEWVAVISYDVSNKYYADSVKGRFTISRDNSKNTLYLQMNSLRAEDTAVYYCARSYYYYYGMDVWGQGTTVTVSS VL: DVVMTQSPSSLSASVGDRVTITCRASQSISRYLAWYQQKPGQAPRLLIYDASNRATGIPVRFSGSGSGTDFTLTISRLEPEDFAVYYCQQFGRSPRTFGQGTRLEIKR	0.294 ng/mL
PEOWT22, fully human anti-CD39 monoclonal antibody (parent, fully fucosylated) (antibody, human IgG1, kappa, V domains shown) VH: EVQLVESGGGVVRPGGSLRLSCAASGFTFSSYAMHWVRQAPGKGLEWVAVISYDVSNKYYADSVKGRFTISRDNSKNTLYLQMNSLRAEDTAVYYCARSYYYYYGMDVWGQGTTVTVSS VL: DVVMTQSPSSLSASVGDRVTITCRASQSISRYLAWYQQKPGQAPRLLIYDASNRATGIPVRFSGSGSGTDFTLTISRLEPEDFAVYYCQQFGRSPRTFGQGTRLEIKR	3.03 ng/mL
